We go through 3 molecules from paper PMC9760430, “A stapled chromogranin A-derived peptide homes in on tumors that express αvβ6 or αvβ8 integrins” (International Journal of Biological Sciences, 2023).

Bridge positions count the residues as written; N and C are the ends. Square brackets hold non-standard residues; d marks the D form. Ends that are not written are not given here. Lys(N3) = [N-]=[N+]=NCCCC[C@H](N)C(=O)O; Pra = C#CC[C@H](N)C(=O)O

Common to all, as to settings: both partners purified
The target of assay [1] is T1, recombinant human αvβ6 integrin (human, UniProt P06756 31-1048; P18564 22-709).
T1 construct: integrin αv subunit, human; integrin β6 subunit, human; details of reagents are in the Supplemental Materials; Such bought integrins are, as I recall, soluble extracellular heterodimers; also called purified αvβ6; source: bought: Bio-Techne
Briefly: ELISA; competitive integrin binding assay: αvβ6-coated plates, isoDGR peptide labeled with peroxidase as probe for the integrin-binding site; Ki. (In general: ELISA stands for enzyme-linked immunosorbent assay.)

The target in assay [2] is T2, recombinant murine αvβ6 integrin (murine, UniProt P43406 31-1044; Q9Z0T9 22-708).
T2 construct: integrin αv subunit, mouse; integrin β6 subunit, mouse; details of reagents are in the Supplemental Materials; source: bought: Bio-Techne
Briefly: direct integrin binding assay (near-infrared fluorescence scan of plates); microtiter plates coated with αvβ6 or αvβ8; peptide-IRDye conjugates incubated 1 h, washed, bound fluorescence read with Odyssey CLx; EC50.

Assay [3] deals with T3, recombinant human αvβ8 integrin (human, UniProt P06756 31-1048; P26012 43-684).
T3 construct: integrin αv subunit, human; integrin β8 subunit, human; details of reagents are in the Supplemental Materials; also called purified αvβ8; source: bought: Bio-Techne
Described as above.

Assay [4] addresses T1, recombinant human αvβ6 integrin. The assay is described as above.
For assay [5], the target named is T4, recombinant murine αvβ8 integrin (murine, UniProt P43406 31-1044; Q0VBD0 22-681).
T4 construct: integrin αv subunit, mouse; integrin β8 subunit, mouse; details of reagents are in the Supplemental Materials; source: bought: Bio-Techne
Described as above.

T4 sequence (P43406 whole entry, chain 1 of 2): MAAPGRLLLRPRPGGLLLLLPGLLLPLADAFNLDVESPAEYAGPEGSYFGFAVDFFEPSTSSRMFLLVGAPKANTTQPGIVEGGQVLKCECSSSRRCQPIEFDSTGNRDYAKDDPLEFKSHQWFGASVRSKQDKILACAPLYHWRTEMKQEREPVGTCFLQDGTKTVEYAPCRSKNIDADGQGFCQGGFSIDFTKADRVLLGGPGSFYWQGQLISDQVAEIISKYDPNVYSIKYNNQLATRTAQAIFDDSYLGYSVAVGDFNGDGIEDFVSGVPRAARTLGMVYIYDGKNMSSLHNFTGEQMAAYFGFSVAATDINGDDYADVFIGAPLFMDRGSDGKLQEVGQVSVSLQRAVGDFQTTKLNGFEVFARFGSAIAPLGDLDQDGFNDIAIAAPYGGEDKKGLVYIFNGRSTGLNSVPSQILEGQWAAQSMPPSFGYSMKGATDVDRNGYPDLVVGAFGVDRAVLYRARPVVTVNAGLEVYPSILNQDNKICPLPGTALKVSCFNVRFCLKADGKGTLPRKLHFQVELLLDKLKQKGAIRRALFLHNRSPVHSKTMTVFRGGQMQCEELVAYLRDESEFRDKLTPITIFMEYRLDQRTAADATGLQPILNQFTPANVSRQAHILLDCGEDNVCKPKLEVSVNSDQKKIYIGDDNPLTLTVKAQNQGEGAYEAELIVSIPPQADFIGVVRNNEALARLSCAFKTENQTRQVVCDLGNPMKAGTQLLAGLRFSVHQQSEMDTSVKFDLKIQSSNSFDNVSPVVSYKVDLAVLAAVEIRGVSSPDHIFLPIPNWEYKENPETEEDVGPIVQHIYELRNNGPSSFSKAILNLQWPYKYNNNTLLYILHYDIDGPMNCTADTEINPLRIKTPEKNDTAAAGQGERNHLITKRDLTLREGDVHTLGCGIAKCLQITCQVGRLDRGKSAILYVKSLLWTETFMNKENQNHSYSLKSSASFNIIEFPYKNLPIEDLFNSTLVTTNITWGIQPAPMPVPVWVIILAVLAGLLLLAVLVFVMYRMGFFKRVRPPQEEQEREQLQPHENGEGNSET
T4 sequence (Q0VBD0 whole entry, chain 2 of 2): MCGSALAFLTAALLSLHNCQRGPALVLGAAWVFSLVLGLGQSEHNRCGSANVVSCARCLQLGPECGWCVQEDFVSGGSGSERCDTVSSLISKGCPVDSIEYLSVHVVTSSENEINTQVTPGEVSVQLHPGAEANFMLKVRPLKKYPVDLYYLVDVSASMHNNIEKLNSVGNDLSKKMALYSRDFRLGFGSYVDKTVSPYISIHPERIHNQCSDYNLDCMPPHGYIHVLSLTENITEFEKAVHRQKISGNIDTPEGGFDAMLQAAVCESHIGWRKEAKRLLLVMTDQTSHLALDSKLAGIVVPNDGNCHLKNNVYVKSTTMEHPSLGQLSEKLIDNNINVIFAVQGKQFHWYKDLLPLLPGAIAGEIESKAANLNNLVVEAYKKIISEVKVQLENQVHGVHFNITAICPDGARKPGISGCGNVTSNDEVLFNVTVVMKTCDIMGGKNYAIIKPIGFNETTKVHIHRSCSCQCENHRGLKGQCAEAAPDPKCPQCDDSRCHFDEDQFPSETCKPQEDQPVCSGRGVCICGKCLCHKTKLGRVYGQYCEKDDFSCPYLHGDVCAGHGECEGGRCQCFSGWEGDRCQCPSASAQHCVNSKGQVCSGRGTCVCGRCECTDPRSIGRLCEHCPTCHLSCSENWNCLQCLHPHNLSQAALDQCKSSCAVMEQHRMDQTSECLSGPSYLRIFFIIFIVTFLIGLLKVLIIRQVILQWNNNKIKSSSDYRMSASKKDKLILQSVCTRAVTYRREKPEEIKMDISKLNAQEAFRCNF
T2 sequence (P43406 whole entry, chain 1 of 2): as the sequence (P43406 whole entry, chain 1 of 2) above
T2 sequence (Q9Z0T9 whole entry, chain 2 of 2): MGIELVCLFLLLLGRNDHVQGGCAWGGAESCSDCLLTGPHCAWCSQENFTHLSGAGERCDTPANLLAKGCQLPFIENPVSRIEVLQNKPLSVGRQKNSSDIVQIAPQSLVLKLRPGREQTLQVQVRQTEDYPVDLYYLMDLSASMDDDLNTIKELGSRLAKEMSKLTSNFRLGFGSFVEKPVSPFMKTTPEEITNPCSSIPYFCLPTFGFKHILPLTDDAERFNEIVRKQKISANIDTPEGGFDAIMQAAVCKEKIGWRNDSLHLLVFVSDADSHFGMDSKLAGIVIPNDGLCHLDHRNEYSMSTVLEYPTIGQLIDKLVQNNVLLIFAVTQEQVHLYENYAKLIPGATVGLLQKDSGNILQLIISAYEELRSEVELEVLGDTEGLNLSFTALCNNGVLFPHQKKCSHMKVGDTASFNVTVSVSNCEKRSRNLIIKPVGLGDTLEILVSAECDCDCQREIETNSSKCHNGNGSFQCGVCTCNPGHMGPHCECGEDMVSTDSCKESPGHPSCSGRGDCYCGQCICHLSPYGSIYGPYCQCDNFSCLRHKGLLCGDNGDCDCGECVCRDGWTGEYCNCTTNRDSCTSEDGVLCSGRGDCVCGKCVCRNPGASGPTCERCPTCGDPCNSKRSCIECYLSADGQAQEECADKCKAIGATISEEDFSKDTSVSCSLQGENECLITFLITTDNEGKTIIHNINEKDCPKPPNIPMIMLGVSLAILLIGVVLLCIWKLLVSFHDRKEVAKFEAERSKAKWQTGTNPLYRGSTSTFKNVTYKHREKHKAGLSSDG

What is called Ki is the dissociation constant of the complex between target and ligand, obtained from inhibition or displacement. C(maleimide‑NOTA)FETLRGDLRILSILR[Pra]QNL[Lys(N3)]KELQD-NH2 (triazole 17-21) [5a-NOTA conjugate]: the Ki in assay [1] turned out to be 2.3 nM.

With CFETLRGDLRILSILR[Pra]QNL[Lys(N3)]KELQD-NH2 (triazole 17-21) [peptide 5a], the Ki in assay [1] stood at 1.7 nM.

The term EC50 denotes the concentration at which the effect is half-maximal. Turning to C(maleimide‑IRDye 800CW)FETLRGDLRILSILR[Pra]QNL[Lys(N3)]KELQD-NH2 (triazole 17-21) [5a-IRDye conjugate], the EC50 amounted to 0.9 nM in assay [2], 1.9 nM in assay [3], 2.8 nM in assay [4] and 0.65 nM in assay [5].
